The labels stand for the following.
B1: F1*; the commonest letter at each place (parent)
chain: GAGACCGCAACTGAAAAGTTGTTATCACTTGTCGTAAGACACTTTGGATGGGTTGAAGTTCTGCACGTAGAAGCAAAAGGC

In this data set the parent is B1. Description: fraction ligated after 30 min (ligated reads / total reads); higher = more ligase activity. The note with it: with F1*sub RNA substrate (template-directed ligation), 42 °C. The procedure: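 Chip-synthesised pool of F1* ligase ribozyme variants (all single and double substitutions, single, double and triple deletions in the catalytic core and GAA bulge, plus designed variants) was transcribed with T7 and reacted as a pool with excess substrate F1*sub for 30 min at 42 C in 50 mM EPPS pH 8.5, 25 mM MgCl2. Ligated and unligated bands were separated by PAGE, barcoded by RT and deep sequenced; fraction ligated = ligated reads / total reads per variant, relative activity = FL / FL of wild type (0.826). Sequences are the DNA template of the ribozyme.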
Take GAGACCGCAACTGAAAAGTTGTTATCACTTGTCCTAAGACACTTTGGATGGGTTCAAGTTCTGCACGTAGAAGCAAAAGGC [G34C G55C]: the fraction ligated amounted to 0.768.
For GAGACCGCAACTGAAAAGTTGTTATCACTTGTCTTAAAACACTTTGGATGGGTTGAAGTTCTGCACGTAGAAGCAAAAGGC [G34T G38A] the value was 0.836; for GAGACCGCAACTGAAAAGTTGTTATCACTTGCCATAAGACACTTTGGATGGGTTGAAGTTCTGCACGTAGAAGCAAAAGGC [T32C G34A], 0.796.
For the variant GAGACCGCAACTGAAAAGTTGTTATCACTTGTCGTAAGACACTTTGGGTCGGTTGAAGTTCTGCACGTAGAAGCAAAAGGC [A48G G50C], the fraction ligated turned out to be 0.0771.
Regarding GAGACCGCAACTGAAAAGTTGTTATCTCTTGTCGTAAGACACTTTGGATGGGTTGGAGTTCTGCACGTAGAAGCAAAAGGC [A27T A56G], the fraction ligated worked out at 0.791.
For GAGACCGCAACTGAAAAGTTGTTATCTCTTGTCGTAAGACACTTTGGATGGGTTTAAGTTCTGCACGTAGAAGCAAAAGGC [A27T G55T] the value was 0.789.
The figure for GAGACCGCAACTGAAAAGTTGTTATCAGTTGTCGTAAGACACTTTTGATGGGTTGAAGTTCTGCACGTAGAAGCAAAAGGC [C28G G46T] is 0.771.
The figure for GAGACCGCAACTGAAAAGTTGTTATCACTTTGCGTAAGACACTTTGGATGGGTTGAAGTTCTGCACGTAGAAGCAAAAGGC [G31T T32G] is 0.826; for GAGACCGCAACTGAAAAGTTGTTATGACTTGTCGTAAGACACTTAGGATGGGTTGAAGTTCTGCACGTAGAAGCAAAAGGC [C26G T45A] it is 0.0653; for GAGACCGCAACTGAAAAGTTGTTATCACTTGTCGTAAGACACTTTGGATGGGTTAGCGTTCTGCACGTAGAAGCAAAAGGC [G55A A56G A57C] it is 0.131.
Regarding GAGACCGCAACTGAAAAGTTGTTATCACTTGTCGTGAGACACTTTGGATGGGTTGAAGTTCTGCACGTAGAAGCAAAAGGC [A36G], the fraction ligated came out at 0.862.
For GAGACCGCAACTGAAAAGTTGTTATCAATTGTCGTAAGACGCTTTGGATGGGTTGAAGTTCTGCACGTAGAAGCAAAAGGC [C28A A41G] the value was 0.779; for GAGACCGCAACTGAAAAGTTGTTATCACTTGTCGTAAGACACTTTGGAAGGGTTCAAGTTCTGCACGTAGAAGCAAAAGGC [T49A G55C], 0.129.
For GAGACCGCAACTGAAAAGTTGTTATCTCTTGTCGTAAGACACTTTGGATGGGTTGACGTTCTGCACGTAGAAGCAAAAGGC [A27T A57C], the fraction ligated was 0.775.
For GAGACCGCAACTGAAAAGTTGTTATCACTTGGCGTAACACACTTTGGATGGGTTGAAGTTCTGCACGTAGAAGCAAAAGGC [T32G G38C], the fraction ligated is 0.798.
For GAGACCGCAACTGAAAAGTTGTTACCACTTGTCGTAAGACACTTTTGATGGGTTGAAGTTCTGCACGTAGAAGCAAAAGGC [T25C G46T] the value was 0.396; for GAGACCGCAACTGAAAAGTTGTTCTCACTTGCCGTAAGACACTTTGGATGGGTTGAAGTTCTGCACGTAGAAGCAAAAGGC [A24C T32C], 0.062.
For GAGACCGCAACTGAAAAGTTGTTATCACTTATCGTAAGACACTTTGGATGGGTTGTAGTTCTGCACGTAGAAGCAAAAGGC [G31A A56T] the value was 0.724; for GAGACCGCAACTGAAAAGTTGTTATCACTTGCCGTAAAACACTTTGGATGGGTTGAAGTTCTGCACGTAGAAGCAAAAGGC [T32C G38A], 0.794; for GAGACCGCAACTGAAAAGTTGTTATCACTTGTCTTAAGACACTTTGGAGGGGTTGAAGTTCTGCACGTAGAAGCAAAAGGC [G34T T49G], 0.772.
The figure for GAGACCGCAACTGAAAAGTTGTTATCACTTGTCGTAAGACCCTTTGGATGGGTTGATGTTCTGCACGTAGAAGCAAAAGGC [A41C A57T] is 0.785; for GAGACCGCAACTGAAAAGTTGTGATCACTTGTCGTAAGGCACTTTGGATGGGTTGAAGTTCTGCACGTAGAAGCAAAAGGC [T23G A39G] it is 0.867.
In the case of GAGACCGCAACTGAAAAGTTGTTATCACTTGACGTAACACACTTTGGATGGGTTGAAGTTCTGCACGTAGAAGCAAAAGGC [T32A G38C], the fraction ligated amounted to 0.82.
The figure for GAGACCGCAACTGAAAAGTTGTTATCACTTGTCGGAAGACACTTTGGATGGGTTGCAGTTCTGCACGTAGAAGCAAAAGGC [T35G A56C] is 0.802; for GAGACCGCAACTGAAAAGTTGTTATCACTGGTCGTAACACACTTTGGATGGGTTGAAGTTCTGCACGTAGAAGCAAAAGGC [T30G G38C] it is 0.805; for GAGACCGCAACTGAAAAGTTGTTATCACTTGTCGTAACACACTTTTGATGGGTTGAAGTTCTGCACGTAGAAGCAAAAGGC [G38C G46T] it is 0.697.
The figure for GAGACCGCAACTGAAAAGTTGTTATCACTTGTCGTAAGACACTTTGGATGGGTTGCGGTTCTGCACGTAGAAGCAAAAGGC [A56C A57G] is 0.0212; for GAGACCGCAACTGAAAAGTTGTTATCACTTGTTGTAAGACACTTCGGATGGGTTGAAGTTCTGCACGTAGAAGCAAAAGGC [C33T T45C] it is 0.815.
The figure for GAGACCGCAACTGAAAAGTTGTTATGACTTGTCGTAAGACACTTTGGATGGGTTCAAGTTCTGCACGTAGAAGCAAAAGGC [C26G G55C] is 0.00657; for GAGACCGCAACTGAAAAGTTGTTATCTCTTGTCGTGAGACACTTTGGATGGGTTGAAGTTCTGCACGTAGAAGCAAAAGGC [A27T A36G] it is 0.862.
On to GAGACCGCAACTGAAAAGTTGTTATCACTTGTACTAAGACACTTTGGATGGGTTGAAGTTCTGCACGTAGAAGCAAAAGGC [C33A G34C], for which the fraction ligated turned out to be 0.805.
For GAGACCGCAACTGAAAAGTTGTTATCACAAGTCGTAAGACACTTTGGATGGGTTGAAGTTCTGCACGTAGAAGCAAAAGGC [T29A T30A] the value was 0.86; for GAGACCGCAACTGAAAAGTTGTTATCAATTGTCGTAAGACACTTTGGATGGGTTGACGTTCTGCACGTAGAAGCAAAAGGC [C28A A57C], 0.776; for GAGACCGCAACTGAAAAGTTGTTATCACTTGTCGTAAGACTCTCTGGATGGGTTGAAGTTCTGCACGTAGAAGCAAAAGGC [A41T T44C], 0.806.

The values are drawn from the supplement of paper PMC6755084.
